We go through five molecules from patent US11015206B2, “Compositions and methods comprising sequences having hydroxyphenylpyruvate dioxygenase (HPPD) activity” (PIONEER HI-BRED INTERNATIONAL, INC., priority 2014, dated 2021).

Residue numbers refer to the chain shown, from its start. In names and notes the source's numbering stands.

Holding throughout (format): biochemical, Z. mays
Data set [1] concerns 4-hydroxyphenylpyruvate dioxygenase (HPPD). As to the kind of experiment: Estimate of kcat from initial rate at saturating hydroxyphenylpyruvate without inhibitor (ON rate ratio assay). To be noted: Table 5; single substitutions in Round 7 variant 9070 (SEQ ID NO:2); estimate from initial rate at saturating hydroxyphenylpyruvate without inhibitor. In outline: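 Reactions used 60 or 120 nM HPPD and saturating 100 μM hydroxyphenylpyruvate without inhibitor. kcat was estimated from the initial rate at the known enzyme concentration.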

For data set [2] the test system is unchanged. As to the kind of experiment: ON rate ratio: HPPD reaction rate with vs without inhibitor in the 70 to 90 second interval. To be noted: Table 5; tembotrione. The essentials:
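Time courses of HPPD reactions, 60 or 120 nM enzyme with 100 μM HPP substrate, run with and without 4 μM inhibitor (e.g. mesotrione, tembotrione). Value is the rate with inhibitor over rate without, taken over 70–90 s; higher ratio reflects slower kON.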

For data set [3] the test system is unchanged. Description: HPPD activity coupled assay with HGD; substrate saturation kinetic parameters (kcat, KM). To be noted: Table 6; for kcat: single substitutions in SEQ ID NO:2. How it is done:
Wild type and shuffled variant genes were cloned into pVER7062, a modified version of pET24a(+)(Novagen), which places six histidine residues at the N-terminus of the expressed protein. Vectors were electroporated into E. coli host strain BL21(DE3). Cells were grown at 30 C in rich medium such as 2×YT containing the selection antibiotic, kanamycin. At a density of about 0.6 OD600, IPTG was added to 0.2 mM, the temperature was reduced to 16 C and growth continued for another 24 hrs. Cells were harvested by centrifugation and stored at −80 C. Cell pellets were lysed in BPER (Pierce) protein extraction reagent containing 0.2 mg/ml lysozyme, 1 mM dithiothreitol, protease inhibitor cocktail (Sigma, bacterial cocktail) and endonuclease. Insoluble cellular debris was removed by centrifugation. HPPD protein was purified from the soluble protein solution by affinity chromatography on the nickel form of nitrilotriacetic acid (Ni-NTA) resin (Qiagen). Protein concentrations were determined by the Bradford method, as supplied by Bio-Rad.
HPPD catalyzes the conversion of 4-hydroxyphenylpyruvate (HPP) to homogentisate (FIG. 17). […] However, the product of the ensuing reaction in tyrosine metabolism, maleylacetoacetate, absorbs strongly at 320 nm. Furthermore, the enzyme catalyzing that reaction is also a dioxygenase having similar mechanism and buffer requirements as HPPD, making homogentisate dioxygenase (HGD) an ideal partner in a coupled assay, as shown.
The HDG gene from Pseudomonas aeruginosa (Amaya (2004) Arch Biochem Biophys 421, 135-142) was cloned into pVER7062 and electroporated into E. coli strain BL21(DE3). The enzyme was produced by methods similar to those described for HPPD. The purified enzyme has a KM for homogentisate of 23 μM and a kcat of 100/sec, properties highly suited for instantly converting the homogentisate produced by HPPD to maleylacetoacetate.
HPPD activity was measured by placing an aliquot (e.g., 6 μl) of the substrate HPP at 50-fold the desired final concentration into the wells of a low UV-absorbing assay plate. Reactions were started by adding a mixture (e.g., 294 μl) containing 25 mM Hepes, pH 7, 2 mM ascorbate, 10 μM FeSO4, 1 to 100 μM HPP, 50 nM HGD and 5 to 240 nM HPPD. Absorbance at 320 nm was monitored continuously in a plate-reading spectrophotometer (Spectramax, Molecular Devices).
The catalytic performance of wild-type HPPD and variants generated by shuffling was assessed by determining the substrate saturation kinetic parameters. The Michaelis-Menten kinetics protocol of the Spectramax software was customized for HPP concentrations ranging from 3.33 μM to 100 μM. Reaction rates were measured as described above for each concentration of HPP. The software returns values of KM and Vmax using the Lineweaver-Burke transformation of the Michaelis-Menten equation.

Data set [4] has the same test system. Description: Insensitivity parameter (ON × OFF) and trait fitness (ON × OFF × kcat/KM or × kcat). To be noted: for ON × OFF × kcat, Value / ON × OFF × kcat, Fold vs wt / ON × OFF, fold vs wt / ON × OFF (parameters with tembotrione): Table 5, tembotrione; for ON × OFF × kcat, Fold vs wt / ON × OFF, fold vs wt: fold vs maize wild type HPPD; for ON × OFF (parameters with tembotrione): insensitivity parameter. The essentials:
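Calculated, not measured directly: ON rate ratio × OFF rate ratio gives an insensitivity parameter serving as a KD surrogate.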

Data set [5] has the same test system. As to the kind of experiment: OFF rate ratio: release of inhibitor from pre-formed enzyme-inhibitor complex. To be noted: Table 5; tembotrione. The essentials: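 HPPD (7.2 μM) pre-incubated 1 h at RT with inhibitor (8 μM), then diluted into 25 mM Hepes pH 7, 2 mM ascorbate, 10 μM FeSO4, 100 μM HPP, 50 nM HGD; A320 followed 12 min. Ratio = steady-state rate with inhibitor over initial rate of inhibitor-free enzyme.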

The mark [6] stands for this setting: DKN (diketonitrile form of isoxaflutole).
The mark [7] stands for this setting: DKN (isoxaflutole diketonitrile).

By kcat is commonly meant the number of substrate molecules converted per active site and unit of time at saturation. One may read the Km as the concentration of substrate that gives half-maximal velocity.

B1: 214N: single substitution S214N in SEQ ID NO:2 (protein)
chain: MGPTPTATAAGAAVAAASAAEQAAFRLVGHRNFVRFNPRSDRFQTLAFHHVELWCADAASAAGRFSFALGVPLAARSDLSTGNSAHASLLLRSGSLSLLFTAPYAHGADAATAALPSFSAAAARRFAADHGLAVRAVALRVADAEDAFRASVAAGARPAFGPVDLGRGFRLAEVELYGDVVLRYVSYPDGAAGEPFLPGFEGVASPGAADYGLNRFDHIVGNVPELAPAAAYMAGFTGFHEFAEFTTEDVGTTESGLNSMALANNSENVLLPLNEPVHGTKRRSQIQTFLDHHGGPGVQHIALASDDVLRTLREMRARSAMGGFEFLPPPLSDYYDGVRRCAGDVLTEAQINECQELGVMVDRDDQGVLLQIFTKPVGDRPTFFLEIIQRIGCMEKDEKGQEYQKGGCGGFGKGNFGQLFKSIEDYEKSLEAKQAAAAATAQGS
modifications: Zea mays variant form created by artificial means.
In the case of B1, the figures for the catalytic constant (kcat) in data set [1] and in data set [3] were 0.59 s⁻¹ and 1.41 s⁻¹, respectively. In addition, the “ON ratio (parameters with tembotrione)” value in data set [2] is given as 0.76. Also, the Km in data set [3] was 3.62 µM. The “Insensitivity parameter, ON × OFF” value in data set [4] (setting [6]) is on record as 0.33; in data set [4] (Mesotrione, Table 6) it was 0.48; in data set [4] (Sulcotrione), 0.59; in data set [4] (Tembotrione), 0.25; in data set [4] (Topramezon), 0.32. The “ON × OFF × kcat/km fold vs Round 7, variant 9070” value (“ON × OFF × kcat/km fold” below) in data set [4] (setting [7]) is 1.4; in data set [4] (Sulco (sulcotrione)), 1.1; in data set [4] (Topra (topramezone)), 1.2; in data set [4] (meso (mesotrione)) it was 1.1; in data set [4] (tembo (tembotrione)), 1.3. Moreover, the “ON × OFF × kcat, Value” in data set [4] is 5.04. In addition, in data set [4], the “ON × OFF × kcat, Fold vs wt” value amounted to 4.71. The “ON × OFF, fold vs wt” value in data set [4] is reported as 27.9. For the same molecule, the “ON × OFF (parameters with tembotrione)” value in data set [4] is on record as 0.14. The “OFF ratio (parameters with tembotrione)” value in data set [5] amounted to 0.19.

B2: 356R: single substitution E356R in SEQ ID NO:2 (protein)
chain: B1 chain with N214S, E356R
modifications: Zea mays variant form created by artificial means.
In the case of B2, the catalytic constant (kcat) in data set [1] was 0.652 s⁻¹; in data set [3] it was 1.32 s⁻¹. Also, in data set [2], the “ON ratio (parameters with tembotrione)” value is on record as 0.75. For the same molecule, the Km in data set [3] was determined as 2.89 µM. Further, the “Insensitivity parameter, ON × OFF” value in data set [4] (setting [6]) was determined as 0.21; in data set [4] (Mesotrione, Table 6) it was 0.44; in data set [4] (Sulcotrione) it was 0.53; in data set [4] (Tembotrione), 0.16; in data set [4] (Topramezon) it was 0.24. Moreover, the “ON × OFF × kcat/km fold” value amounted to 1.1 in data set [4] (setting [7]); 1.1 in data set [4] (Sulco (sulcotrione)); 1.1 in data set [4] (Topra (topramezone)); 1.1 in data set [4] (meso (mesotrione)); 1.2 in data set [4] (tembo (tembotrione)). Also, the “ON × OFF × kcat, Value” in data set [4] stood at 5.97. For the same molecule, in data set [4], the “ON × OFF × kcat, Fold vs wt” value amounted to 5.58. In addition, in data set [4], the “ON × OFF, fold vs wt” value is 30.0. Besides, the “ON × OFF (parameters with tembotrione)” value in data set [4] was 0.15. In addition, the “OFF ratio (parameters with tembotrione)” value in data set [5] is 0.21.

B3: 356K: single substitution E356K in SEQ ID NO:2 (protein)
chain: B1 chain with N214S, E356K
modifications: Zea mays variant form created by artificial means.
B3: the results for the kcat in data set [1] and in data set [3] were 0.647 s⁻¹ and 1.1 s⁻¹, respectively. The “ON ratio (parameters with tembotrione)” value in data set [2] came to 0.75. In addition, in data set [3], the Km was determined as 2.6 µM. Also, the “Insensitivity parameter, ON × OFF” value in data set [4] (setting [6]) was 0.25; in data set [4] (Mesotrione, Table 6), 0.48; in data set [4] (Sulcotrione) it was 0.55; in data set [4] (Tembotrione) it was 0.18; in data set [4] (Topramezon), 0.23. In addition, the “ON × OFF × kcat/km fold” value in data set [4] (setting [7]) is 1.1; in data set [4] (Sulco (sulcotrione)), 1.1; in data set [4] (Topra (topramezone)), 0.9; in data set [4] (meso (mesotrione)), 1.2; in data set [4] (tembo (tembotrione)), 1.2. Moreover, the “ON × OFF × kcat, Value” in data set [4] was found to be 6.18. Besides, in data set [4], the “ON × OFF × kcat, Fold vs wt” value amounted to 5.78. Moreover, the “ON × OFF, fold vs wt” value in data set [4] was found to be 31.2. Also, the “ON × OFF (parameters with tembotrione)” value in data set [4] was determined as 0.16. In addition, the “OFF ratio (parameters with tembotrione)” value in data set [5] worked out at 0.21.

B4: 385I: single substitution L385I in SEQ ID NO:2 (protein)
chain: B1 chain with N214S, L385I
modifications: Zea mays variant form created by artificial means.
With B4, the values for the kcat in data set [1] and in data set [3] were 0.458 s⁻¹ and 0.768 s⁻¹, respectively. Moreover, in data set [2], the “ON ratio (parameters with tembotrione)” value is listed as 0.75. Moreover, the Michaelis-Menten constant (Km) in data set [3] worked out at 2.29 µM. The “Insensitivity parameter, ON × OFF” value in data set [4] (setting [6]) amounted to 0.41; in data set [4] (Mesotrione, Table 6) it was 0.56; in data set [4] (Sulcotrione), 0.70; in data set [4] (Tembotrione) it was 0.28; in data set [4] (Topramezon), 0.38. Besides, the “ON × OFF × kcat/km fold” value in data set [4] (setting [7]) was determined as 1.2; in data set [4] (Sulco (sulcotrione)), 1.1; in data set [4] (Topra (topramezone)) it was 1.2; in data set [4] (meso (mesotrione)), 1.1; in data set [4] (tembo (tembotrione)) it was 1.3. For the same molecule, the “ON × OFF × kcat, Value” in data set [4] worked out at 5.55. In data set [4], the “ON × OFF × kcat, Fold vs wt” value is listed as 5.18. Moreover, the “ON × OFF, fold vs wt” value in data set [4] is listed as 39.5. Further, the “ON × OFF (parameters with tembotrione)” value in data set [4] turned out to be 0.20. Also, the “OFF ratio (parameters with tembotrione)” value in data set [5] is 0.27.

B5: 158K: single substitution P158K in SEQ ID NO:2 (protein)
chain: B1 chain with P158K, N214S
modifications: Zea mays variant form created by artificial means.
Regarding B5, the catalytic constant (kcat) was 0.84 s⁻¹ in data set [1] and 0.785 s⁻¹ in data set [3]. In addition, the “ON ratio (parameters with tembotrione)” value in data set [2] is on record as 0.77. Further, the Michaelis-Menten constant (Km) in data set [3] is 2.49 µM. Further, the “Insensitivity parameter, ON × OFF” value in data set [4] (setting [6]) is listed as 0.38; in data set [4] (Mesotrione, Table 6), 0.54; in data set [4] (Sulcotrione) it was 0.63; in data set [4] (Tembotrione), 0.29; in data set [4] (Topramezon), 0.37. For the same molecule, the “ON × OFF × kcat/km fold” value in data set [4] (setting [7]) turned out to be 1.0; in data set [4] (Sulco (sulcotrione)), 0.9; in data set [4] (Topra (topramezone)) it was 1.1; in data set [4] (meso (mesotrione)) it was 1.0; in data set [4] (tembo (tembotrione)), 1.3. Also, in data set [4], the “ON × OFF × kcat, Value” is reported as 10.44. Besides, the “ON × OFF × kcat, Fold vs wt” value in data set [4] is given as 9.76. In data set [4], the “ON × OFF, fold vs wt” value was 40.6. Moreover, the “ON × OFF (parameters with tembotrione)” value in data set [4] was determined as 0.21. Also, the “OFF ratio (parameters with tembotrione)” value in data set [5] came to 0.27.
